According to article doi:10.1101/2025.02.07.637128 (bioRxiv, 2025):
Values joined by “and” are separate entries in the source; they are usually repeats but may differ in a detail not shown here. Identical values can stand only once.

What was measured:
Concanavalin A = test: resistive pulse sensing with PLY nanopores
[1] = target: the molecule itself

Molecule | stoichiometry N (Concanavalin A) | stoichiometry N [1] [monomers]
Concanavalin A (natural protein) | 2 and 4 | –
Pneumolysin (PLY) toxin (natural protein) MANKAVNDFILAMNYDKKKLLTHQGESIENRFIKEGNQLPDEFVVIERKKRSLSTNTSDISVTATNDSRLYPGALLVVDETLLENNPTLLAVDRAPMTYSIDLPGLASSDSFLQVEDPSNSSVRGAVNDLLAKWHQDYGQVNNVPARMQYEKITAHSMEQLKVKFGSDFEKTGNSLDIDFNSVHSGEKQIQIVNFKQIYYTVSVDAVKNPGDVFQDTVTVEDLKQRGISAERPLVYISSVAYGRQVYLKLETTSKSDEVEAAFEALIKGVKVAPQTEWKQILDNTEVKAVILGGDPSSGARVVTGKVDMVEDLIQEGSRFTADHPGLPISYTTSFLRDNVVATFQNSTDYVETKVTAYRNGDLLLDHSGAYVAQYYITWDELSYDHQGKEVLTPKAWDRNGQDLTAHFTTSIPLKGNVRNLSVKIRECTGLAWEWWRTVYEKTDLPLVRKRTISIWGTTLYPQVEDKVEND | – | 35 ± 2
